From US20260103541A1 (UNIVERSIT T Z RICH, published 2026)

What was measured:
[1] = target: T1, mouse FAP on cells (mouse, UniProt P97321 1-761); assay: cell-based binding assay
T1 construct: also called murine FAP; mFAP
T1 sequence: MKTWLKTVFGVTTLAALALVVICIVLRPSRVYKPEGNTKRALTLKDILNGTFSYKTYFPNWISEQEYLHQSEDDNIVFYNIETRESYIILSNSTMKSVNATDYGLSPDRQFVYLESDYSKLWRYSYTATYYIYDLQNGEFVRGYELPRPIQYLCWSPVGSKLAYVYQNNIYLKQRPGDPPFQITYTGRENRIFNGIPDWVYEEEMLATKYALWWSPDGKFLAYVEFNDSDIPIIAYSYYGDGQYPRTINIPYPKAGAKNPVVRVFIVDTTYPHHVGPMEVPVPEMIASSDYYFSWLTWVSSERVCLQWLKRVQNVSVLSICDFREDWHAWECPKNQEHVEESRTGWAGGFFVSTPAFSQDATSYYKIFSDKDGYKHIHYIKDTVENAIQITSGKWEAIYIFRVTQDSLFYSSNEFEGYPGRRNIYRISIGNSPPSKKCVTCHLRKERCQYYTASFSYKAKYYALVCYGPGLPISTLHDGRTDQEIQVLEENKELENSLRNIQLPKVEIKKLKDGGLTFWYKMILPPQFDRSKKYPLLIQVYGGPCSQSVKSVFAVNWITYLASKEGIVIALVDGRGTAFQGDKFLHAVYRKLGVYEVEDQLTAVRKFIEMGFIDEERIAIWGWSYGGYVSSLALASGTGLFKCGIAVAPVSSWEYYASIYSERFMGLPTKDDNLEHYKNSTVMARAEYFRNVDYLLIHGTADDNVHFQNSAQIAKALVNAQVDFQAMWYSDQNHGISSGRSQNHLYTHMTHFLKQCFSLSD

[2] = target: T2, recombinant mouse FAP (R&D Systems) (mouse, UniProt P97321 26-761); assay: ELISA, recombinant mouse FAP coated, 100 nM DARPin, anti-FLAG detection
T2 construct: also called Recombinant mFAP
T2 sequence: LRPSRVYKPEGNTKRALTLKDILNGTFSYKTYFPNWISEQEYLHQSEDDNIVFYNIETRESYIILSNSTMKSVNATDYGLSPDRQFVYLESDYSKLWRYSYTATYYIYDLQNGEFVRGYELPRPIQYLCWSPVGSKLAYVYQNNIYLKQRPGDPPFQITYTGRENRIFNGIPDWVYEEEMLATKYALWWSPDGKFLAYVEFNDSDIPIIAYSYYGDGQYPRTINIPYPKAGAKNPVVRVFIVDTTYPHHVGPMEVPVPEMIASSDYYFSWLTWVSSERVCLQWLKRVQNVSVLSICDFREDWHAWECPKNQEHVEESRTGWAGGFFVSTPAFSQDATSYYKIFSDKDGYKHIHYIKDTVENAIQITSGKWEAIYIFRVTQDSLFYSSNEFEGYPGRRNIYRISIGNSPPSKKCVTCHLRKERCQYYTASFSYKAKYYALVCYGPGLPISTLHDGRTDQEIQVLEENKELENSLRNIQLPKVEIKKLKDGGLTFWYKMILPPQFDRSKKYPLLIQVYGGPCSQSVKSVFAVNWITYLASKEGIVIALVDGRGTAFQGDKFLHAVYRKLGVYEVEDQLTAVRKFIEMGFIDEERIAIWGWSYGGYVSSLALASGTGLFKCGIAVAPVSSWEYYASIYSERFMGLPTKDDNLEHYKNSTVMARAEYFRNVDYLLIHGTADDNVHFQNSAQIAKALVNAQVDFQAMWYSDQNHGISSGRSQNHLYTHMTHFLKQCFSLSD
Description: Recombinant mFAP (R&D Systems), and recombinant maltose-binding protein (MBP; inhouse production) for a positive control, were used for a DARPin binding analysis via ELISA. Target protein was coated overnight (O/N) at 4° C. on MaxiSorp™ 96-well plates (Nunc). Blocking was performed for 2 h at RT using ELISA-blocking buffer (PBS containing 0.5% (w/v) BSA). Plates were washed with ELISA-PBS-T (PBS containing 0.05% (v/v) Tween 20). Samples were diluted (100 nM DARPin concentration) in ELISA-PBS-TB (ELISA PBS T containing 0.5% (w/v) BSA) and incubated for 1 h at 4° C. while shaking. DARPin detection was performed with rabbit anti-FLAG antibody (GenScript, A01868; 1:5,000) and goat anti-rabbit-AP antibody (Sigma Aldrich, A3687; 1:10,000), both diluted in ELISA-PBS-TB and incubated for 1 h at 4° C. while shaking. Substrate solution consisting of 3 mM p-nitrophenyl phosphate (pNPP) diluted in pNPP buffer (50 mM NaHCO₃, 50 mM MgCl₂) was used for final detection. A Tecan Infinite M1000 plate reader (Tecan) was used to measure the absorbance at 405 nm.

[3] = target: T3, human FAP (fibroblast activation protein) on HT1080hFAP cells (human, UniProt Q12884 1-760); assay: flow cytometry cell-based binding assay, HT1080hFAP against FAP-negative HT1080 cells
T3 construct: also called seprase
T3 sequence: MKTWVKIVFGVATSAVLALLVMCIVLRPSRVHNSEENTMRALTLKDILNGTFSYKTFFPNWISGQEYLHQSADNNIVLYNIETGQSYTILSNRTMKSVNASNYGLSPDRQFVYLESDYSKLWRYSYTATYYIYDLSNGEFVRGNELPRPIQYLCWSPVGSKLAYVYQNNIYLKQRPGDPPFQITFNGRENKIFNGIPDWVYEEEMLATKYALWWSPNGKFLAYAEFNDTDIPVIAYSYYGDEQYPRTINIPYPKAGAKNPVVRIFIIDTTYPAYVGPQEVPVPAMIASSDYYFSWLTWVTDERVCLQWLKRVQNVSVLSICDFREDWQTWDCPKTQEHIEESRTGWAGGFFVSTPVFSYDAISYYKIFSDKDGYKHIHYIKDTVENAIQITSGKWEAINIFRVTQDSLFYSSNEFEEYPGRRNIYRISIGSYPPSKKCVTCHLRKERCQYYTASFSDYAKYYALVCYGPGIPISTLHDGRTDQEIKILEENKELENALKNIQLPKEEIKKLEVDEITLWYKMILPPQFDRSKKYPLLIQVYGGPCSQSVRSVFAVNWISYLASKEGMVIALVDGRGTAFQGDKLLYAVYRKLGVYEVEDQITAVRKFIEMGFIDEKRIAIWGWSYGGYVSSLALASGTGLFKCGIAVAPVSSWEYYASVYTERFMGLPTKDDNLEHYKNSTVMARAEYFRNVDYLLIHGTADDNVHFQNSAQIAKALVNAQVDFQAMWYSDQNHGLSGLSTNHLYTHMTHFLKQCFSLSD

Measured: binding result

B1: DARPin #6 (designed binder)
chain: DLGKKLLEAARAGQDDEVRILMANGADVNASDNWGRTPLHVAAQRGHLEIVDVLLAHGADDNASNRWGSTPLHVAAYTGHLEIVDVLLANGADVNASTANGETPLHAAAHAGHLEIVDVLLKHGADVNAQDKFGKTPFDLAIDNGNEDIAEVLQ
notes: also called designed ankyrin repeat domain #6; not shown: N terminal His6 tag; C terminal FLAG tag
binds: all assays above
